Measurements from patent US20170166895.

What was measured:
[1] = target: T1, Complement component 3 (C3) (Homo sapiens) (UniProt P01024+P01024); assay: filter; conditions: 3'-3' idT
[2] = target: T1, Complement component 3 (C3) (Homo sapiens); assay: inhibition; conditions: P = NapdU (all U); 2'-OMe at 1,2,3,5,7,9,10,13,19,20,22,23,24,25,26,27,28; 3'-3' idT; hemolysis, 20 nM C3, GVB++, 37 C; C3a release in 34% serum IC50 3 uM
[3] = all P = NapdU, U1 = 2'-OMe-U, 2'-OMe at 1,2,3,5,7,9,10,13,19,20,22-28, C3-spacer replaces C17, SB18T0.01, 37C
[4] = all U in listing = NapdU, SB18T0.01, 37C
[5] = all U = NapdU, T = dT, SB18T0.01, 37C

T1 sequence (P01024 23-667, chain 1 of 2): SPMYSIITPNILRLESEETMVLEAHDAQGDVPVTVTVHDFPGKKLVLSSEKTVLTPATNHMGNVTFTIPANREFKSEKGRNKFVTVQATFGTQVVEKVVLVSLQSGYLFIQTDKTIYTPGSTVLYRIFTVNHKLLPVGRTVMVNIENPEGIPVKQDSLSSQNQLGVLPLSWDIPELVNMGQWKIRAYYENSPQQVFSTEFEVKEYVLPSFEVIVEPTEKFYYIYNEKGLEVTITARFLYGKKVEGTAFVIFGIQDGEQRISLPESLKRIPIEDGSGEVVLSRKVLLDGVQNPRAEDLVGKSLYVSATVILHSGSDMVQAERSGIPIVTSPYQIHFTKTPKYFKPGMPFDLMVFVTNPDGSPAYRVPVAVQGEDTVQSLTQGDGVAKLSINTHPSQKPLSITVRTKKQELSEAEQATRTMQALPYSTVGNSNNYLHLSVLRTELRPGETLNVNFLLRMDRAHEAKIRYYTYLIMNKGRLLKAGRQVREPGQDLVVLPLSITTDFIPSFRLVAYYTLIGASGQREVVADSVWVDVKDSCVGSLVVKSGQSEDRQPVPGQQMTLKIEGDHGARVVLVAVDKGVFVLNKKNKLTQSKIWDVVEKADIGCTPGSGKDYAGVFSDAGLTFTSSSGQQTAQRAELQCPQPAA
T1 sequence (P01024 672-1663, chain 2 of 2): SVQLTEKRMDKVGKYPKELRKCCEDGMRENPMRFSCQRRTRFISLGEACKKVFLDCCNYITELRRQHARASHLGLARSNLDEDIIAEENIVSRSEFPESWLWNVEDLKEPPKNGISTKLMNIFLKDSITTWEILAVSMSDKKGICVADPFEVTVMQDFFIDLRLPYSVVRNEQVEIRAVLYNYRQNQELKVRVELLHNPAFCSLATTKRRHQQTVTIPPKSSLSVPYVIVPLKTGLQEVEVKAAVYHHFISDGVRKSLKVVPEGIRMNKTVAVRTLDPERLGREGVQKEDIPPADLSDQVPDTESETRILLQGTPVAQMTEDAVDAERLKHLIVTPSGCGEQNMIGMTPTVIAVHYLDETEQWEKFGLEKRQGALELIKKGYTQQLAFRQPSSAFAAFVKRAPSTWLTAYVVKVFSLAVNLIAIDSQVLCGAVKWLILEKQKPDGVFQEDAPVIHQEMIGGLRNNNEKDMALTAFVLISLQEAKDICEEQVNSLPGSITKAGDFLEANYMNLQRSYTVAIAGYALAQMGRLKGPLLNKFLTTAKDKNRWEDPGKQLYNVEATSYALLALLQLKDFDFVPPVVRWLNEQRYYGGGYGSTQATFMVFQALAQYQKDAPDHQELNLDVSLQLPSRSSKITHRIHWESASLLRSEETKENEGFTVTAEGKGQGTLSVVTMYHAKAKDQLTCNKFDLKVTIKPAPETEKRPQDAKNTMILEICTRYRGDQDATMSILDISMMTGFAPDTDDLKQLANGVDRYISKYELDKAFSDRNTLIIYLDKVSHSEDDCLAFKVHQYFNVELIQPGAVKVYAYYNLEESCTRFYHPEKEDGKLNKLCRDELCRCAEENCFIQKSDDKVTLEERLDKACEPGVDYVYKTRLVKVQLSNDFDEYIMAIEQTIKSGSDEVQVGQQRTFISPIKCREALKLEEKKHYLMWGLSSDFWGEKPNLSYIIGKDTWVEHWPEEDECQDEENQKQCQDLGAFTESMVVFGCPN

For “CGGUGACUCAAUAGUCCGUACGUUCCCG [8491-94_97]”, the Kd ([1]; all U = NapdU, 2'-OMe at 1,2,3,5,7,9,10,13,19,20,22-28, SB18T0.01, 37C) was 0.0549 nM and the IC50 [2] was 15.6 nM.
Sequence “CGGUGACUCAAUAGUCCGUACGUUCCCG [8491-94_86]” has a Kd ([1]; P = NapdU (all U), 2'-OMe G28, SB18T0.01, 5 mM MgCl2, 37 C) of 0.0344 nM.
Work on “UGGUGACUCAAUAGUCGUACAUUCCCA [8491-94_138]” yielded a Kd [1, 3] of 18.2 nM.
Sequence “CGGUGACUCAAUAGUCCGUACGUUCCCG [8491-94_64]” has a Kd ([1]; all U = NapdU, 2'-OMe at A6, SB18T0.01, 37C) of 0.512 nM.
With “CGGUGACUCAAUAGUCCGUACGUUCCCG [8491-94_69]” the Kd ([1]; P = NapdU (all U), 2'-OMe A11, SB18T0.01, 5 mM MgCl2, 37 C) was 0.272 nM.
Sequence “ACTCCCCGGUGACUCAAUAGUCCGUACGUUCCCGGUCCGAA [8491-94_6]” has a Kd ([1]; all U = NapdU, SB18T0.01, 37C) of 0.019 nM.
“TGGUGACUCAAUAGUCCGUACGUUCCCA [8491-94_128]” showed a Kd ([1]; all P = NapdU, T1 = dT, 2'-OMe at 2,3,5,7,9,10,13,19,20,22-28, SB18T0.01, 37C) of 0.038 nM.
With “CCGGUGACUCAUAGUCCGUACGUUCCCGG [8491-94_38]” the Kd ([1]; all U = NapdU, C3-spacer replaces A11, SB18T0.01, 37C) was 0.148 nM.
In the case of “CCGGUGACUCAUAGUCCGUACGUUCCCGG [8491-94_39]”, the Kd ([1]; all U = NapdU, C3-spacer replaces A12, SB18T0.01, 37C) is reported as 0.31 nM.
“ACTCCCUUAAAAGGGUCGUUGACUCCAUAGUCCGUACGUUUCCGAGAGGA [8491-394_3]” showed a Kd [1, 4] of 0.448 nM.
“UGGUGACUCAAUAGUCGUACGUUCCCA [8491-94_137]” gave a Kd [1, 3] of 0.119 nM.
With “TGGUGACUCAAUAGUCCGUATGUUCCCA [8491-94_130]” the Kd ([1]; all P = NapdU, T = dT, 2'-OMe at 2,3,5,7,9,10,13,19,20,22-28, SB18T0.01, 37C) was 17.9 nM.
CGGUGACUCAAUAGUCGUACGUUCCG [8491-94_99] gave a Kd ([1]; all U = NapdU, 2'-OMe at 1,2,3,5,7,9,10,13,19,20,22,23,24,26,27,28, C3-spacer replaces C17, C25, SB18T0.01, 37C) of 0.167 nM.
In the case of “CGGUGACUCAAUAGUCCGUACGUUCCCG [8491-94_59]”, the Kd ([1]; P = NapdU (all U), 2'-OMe C1, SB18T0.01, 5 mM MgCl2, 37 C) is reported as 0.0342 nM.
Work on “ACTCCUCCCUUUGGCUCGAUAGUCGGUACGUUUUGGGGAGGCGUGGAGGA [8491-409_3]” yielded a Kd [1, 4] of 0.316 nM.
Work on “TGGUGACUCAAUAGUCGUATGUUCCCA [8491-94_131]” yielded a Kd ([1]; all P = NapdU, T = dT, 2'-OMe at 2,3,5,7,9,10,13,19,20,22-28, C3-spacer replaces C17, SB18T0.01, 37C) of 5.64 nM.
Sequence “ACTCCCUAACACGGCCGAGUUGACUCCCAUAGUCCGUACGUUUGCGAGGA [8491-387_3]” has a Kd [1, 4] of 0.519 nM.
“CCGGUGACUCAAUAGUCCGUACGUUCCCG [8491-94_52]” was tested, and the Kd ([1]; all U = NapdU, C3-spacer replaces G30, SB18T0.01, 37C) was 0.0504 nM.
With “CGGUGACUCAAUAGUCCGUACGUUCCCG [8491-94_82]” the Kd ([1]; all U = NapdU, 2'-OMe at NapdU24, SB18T0.01, 37C) was 0.0118 nM.
“ACTCCAUGUCGGCGUUUGGCUCAAUAGUCCGUACGUUUUACGCGUGAGGA [8491-389_3]” was tested, and the Kd [1, 4] was 0.0295 nM.
With “CCCCGGUGACUCAAUAGUCCGUACGUUCCCGGUCC [8491-94_24]” the Kd ([1]; all U = NapdU, SB18T0.01, 37C) was 0.0535 nM.
Work on “ACTCCGAGCAUUGACUCAAUAGUCCGUACGUUUGGCCGGGCAGGGGAGGA [8491-3_3]” yielded a Kd ([1]; all U in listing = NapdU, SB18T0.01 (5 mM MgCl2), 37C) of 0.119 nM.
“CGGUGACUCAAUAGUCCGUACGUUCCCG [8491-94_73]” gave a Kd ([1]; all U = NapdU, 2'-OMe at NapdU15, SB18T0.01, 37C) of 1.32 nM.
Work on “CGGUGACUCAAUAGUCCGUACGUUCCCG [8491-94_76]” yielded a Kd ([1]; all U = NapdU, 2'-OMe at G18, SB18T0.01, 37C) of 0.93 nM.
CGGUGAUCAAUAGUCGUACGUUCCG [8491-94_54] was tested, and the Kd ([1]; all U = NapdU, C3-spacer replaces C7, C17, C25, SB18T0.01, 37C) was 0.0221 nM.
With “ACTCCGAGCAUUGACUCAAUAGUCCGUACGUUUUUGACCGGGGCAGGGGGAGGA [8491-385_3]” the Kd ([1]; all U in listing = NapdU, printed as 1.46-10, SB18T0.01, 37C) was 0.146 nM.
With “CGGUGACUCAAUAGUCGUACGUUCCCG [8491-94_98]” the Kd ([1]; all U = NapdU, 2'-OMe at 1,2,3,5,7,9,10,13,19,20,22-28, C3-spacer replaces C17, SB18T0.01, 37C) was 0.095 nM.
With “GGGUGACUCAAUAGUCCGUACAUUCCCC [8491-94_135]” the Kd ([1]; all P = NapdU, 2'-OMe at 1,2,3,5,7,9,10,13,19,20,22-28, SB18T0.01, 37C) was 15.3 nM.
For “CGGUGACUCAAUAGUCCGUACGUUCCCG [8491-94_93]”, the Kd ([1]; all U = NapdU, 2'-OMe at 1,2,3,5,7,10,13,19,23,24,26,27,28, SB18T0.01, 37C) was 0.0152 nM.
For “TGGUGACUCAAUAGUCGUACGUUCCCA [8491-94_129]”, the Kd ([1]; all P = NapdU, T1 = dT, 2'-OMe at 2,3,5,7,9,10,13,19,20,22-28, C3-spacer replaces C17, SB18T0.01, 37C) was 0.0179 nM.
“ACTCCCCGGUGACUCAAUAGUCCGUACGTUCCCGGUCCGAACGCGGAGGA [8491-94_16]” was tested, and the Kd [1, 5] was 69.4 nM.
Work on CGGUGACUUAGUCCGUACGUUCCCG [8491-94_57] yielded a Kd ([1]; all U = NapdU, hexaethylene glycol (Heg) replaces C9-A10-A11, SB18T0.01, 37C) of 0.245 nM.
Sequence “CGGUGACUCAAUAGUCCGUACGUUCCCG [8491-94_94]” has a Kd ([1]; all U = NapdU, 2'-OMe at 1,2,3,5,7,10,13,19,23-28, SB18T0.01, 37C) of 0.0557 nM.
Work on “CCGGUGAUCAAUAGUCCGUACGUUCCCGG [8491-94_36]” yielded a Kd ([1]; all U = NapdU, C3-spacer replaces C8, SB18T0.01, 37C) of 0.0315 nM.
With “ACTCCUGUUGACUCACAUAGUCCGUACGUUUACGGCAAUAGCACAGAGGA [8491-396_3]” the Kd [1, 4] was 0.311 nM.
With “CGGUGACUCAAUAGUCCGUACGUUCCCG [8491-94_89]” the Kd ([1]; all U = NapdU, 2'-OMe at 1,3,5,7,10,13,28, SB18T0.01, 37C) was 0.0173 nM.
“ACTCCCCGGUGACUCAATAGUCCGUACGUUCCCGGUCCGAACGCGGAGGA [8491-94_13]” showed a Kd [1, 5] of 41.7 nM.
Work on “ACTCCUACGGUUGGCUCCAUAGUCAGUACGUUUACGAUACCCCGAGGA [8491-282_3]” yielded a Kd [1, 4] of 0.27 nM.
“ACTCCCCGGUGACUCAAUAGUCCGUACGUUCC [8491-94_20]” was tested, and the Kd ([1]; all U = NapdU, SB18T0.01, 37C) was 1.14 nM.
In the case of “CGGUGACUCAAUAGUCCGUACGUUCCCG [8491-94_80]”, the Kd ([1]; P = NapdU (all U), 2'-OMe G22, SB18T0.01, 5 mM MgCl2, 37 C) is reported as 0.0678 nM.
“CCGGUGACUCAAUAGUCCGUACGUUCCGG [8491-94_48]” gave a Kd ([1]; all U = NapdU, C3-spacer replaces C26, SB18T0.01, 37C) of 0.0302 nM.
For “CCGGUGACUCAAUGUCCGUACGUUCCCGG [8491-94_40]”, the Kd ([1]; all U = NapdU, C3-spacer replaces A14, SB18T0.01, 37C) was 1.99 nM.
“CGGUGACUCAAUAGUCCGUACGUUCCCG [8491-94_95]” showed a Kd ([1]; all U = NapdU, 2'-OMe at 1,2,3,5,7,10,13,19,20,23-28, SB18T0.01, 37C) of 0.0357 nM.
For “ACTCCCCGGUGACTCAAUAGUCCGUACGUUCCCGGUCCGAACGCGGAGGA [8491-94_12]”, the Kd [1, 5] was 8.57 nM.
For “UGGUGACUCAAUAGUCCGUACAUUCCCA [8491-94_139]”, the Kd ([1]; all P = NapdU, U1 = 2'-OMe-U, 2'-OMe at 1,2,3,5,7,9,10,13,19,20,22-28, SB18T0.01, 37C) was 26.7 nM.
With CGGUGAUAAUAGUCGUACGUUCCG [8491-94_55] the Kd ([1]; all U = NapdU, C3-spacer replaces C7, C9, C17, C25, SB18T0.01, 37C) was 0.0415 nM.
“CGGUGACUCAAUAGUCCGUACGUUCCCGG [8491-94_30]” gave a Kd ([1]; all U = NapdU, C3-spacer replaces C1, SB18T0.01, 37C) of 0.0622 nM.
“CCGGUGACUCAAUAGUCCUACGUUCCCGG [8491-94_44]” gave a Kd ([1]; all U = NapdU, C3-spacer replaces G19, SB18T0.01, 37C) of 1.28 nM.
CGGUGAUCAAUAGUCGUACGUUCCG [8491-94_102] was tested, and the Kd ([1]; all U = NapdU, 2'-OMe at 1,2,3,5,10,13,26,27,28, C3-spacer replaces C7, C17, C25, SB18T0.01, 37C) was 0.0603 nM.
In the case of “CCGGUGACUCAAUAGUCGUACGUUCCCGG [8491-94_42]”, the Kd ([1]; all U = NapdU, C3-spacer replaces C17, SB18T0.01, 37C) is reported as 0.86 nM.
With “CGGUGACUCAAUAGUCCGUACGUUCCCG [8491-94_83]” the Kd ([1]; P = NapdU (all U), 2'-OMe C25, SB18T0.01, 5 mM MgCl2, 37 C) was 0.0488 nM.
With “CCCCGGUGACUCAAUAGUCCGUACGUUCCCGG [8491-94_25]” the Kd ([1]; all U = NapdU, SB18T0.01, 37C) was 0.0928 nM.
Sequence “CGGUGACUCAAUAGUCCGUACGUUCCG [8491-94_87]” has a Kd ([1]; all U = NapdU, SB18T0.01, 37C) of 0.154 nM.
“CCCCGGUGACUCAAUAGUCCGUACGUUCCCGGUCCGAACGCGGAGGA [8491-94_8]” was tested, and the Kd ([1]; all U = NapdU, SB18T0.01, 37C) was 0.0369 nM.
For “CCGGUGACUCAAUAGUCGUACGUUCCCGG [8491-94_43]”, the Kd ([1]; all U = NapdU, C3-spacer replaces C18, SB18T0.01, 37C) was 0.0142 nM.
With “CGGUGACUCAAUAGUCCGUACGUUCCCG [8491-94_79]” the Kd ([1]; P = NapdU (all U), 2'-OMe C21, SB18T0.01, 5 mM MgCl2, 37 C) was 0.273 nM.
“ACTCCAGCAACUUGACUCAAUAGUCCGUACGUUUAUGCGAGAACAGAGGA [8491-386_3]” gave a Kd [1, 4] of 0.104 nM.
Sequence “ACTCCGUCUGGCUAACUUAGUCCGUACGUUCGUGAGCGUGAUUAUGAGGA [8491-397_3]” has a Kd [1, 4] of 3.11 nM.
“CGGUGACUCAAUAGUCCGUACGUUCCCGG [8491-94_31]” was tested, and the Kd ([1]; all U = NapdU, C3-spacer replaces C2, SB18T0.01, 37C) was 0.14 nM.
“ACTCCCUAUGAGGGCUGAUUCAAUAGUCAGUACGUUCGCCCCAUCGAGGA [8491-399_3]” showed a Kd [1, 4] of 8.61 nM.
With “CGGUGACUCAAUAGUCCGUACGUUCCCG [8491-94_60]” the Kd ([1]; P = NapdU (all U), 2'-OMe G2, SB18T0.01, 5 mM MgCl2, 37 C) was 0.0537 nM.
